Among the data in publication doi:10.1101/2025.08.19.671101 (bioRxiv, 2025) are Kd values, retold here.

One experiment has as its target T1, 10E8-GT10.2 (synthetic construct; HIV-1 MPER helix …, N-linked glycan density at N74/75).
T1 construct: also called MPER-GT immunogen
T1 chain: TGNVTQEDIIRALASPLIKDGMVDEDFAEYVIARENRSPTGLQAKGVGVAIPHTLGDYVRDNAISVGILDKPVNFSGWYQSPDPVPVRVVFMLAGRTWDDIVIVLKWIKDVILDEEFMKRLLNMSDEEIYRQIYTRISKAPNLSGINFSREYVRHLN
In words: SPR. Particulars: both partners purified.

A further experiment concerns the target T2, 10E8-GT12 (synthetic construct; HIV-1 MPER helix …, N-linked glycan density at N74/75).
T2 construct: also called MPER-GT immunogen
T2 chain: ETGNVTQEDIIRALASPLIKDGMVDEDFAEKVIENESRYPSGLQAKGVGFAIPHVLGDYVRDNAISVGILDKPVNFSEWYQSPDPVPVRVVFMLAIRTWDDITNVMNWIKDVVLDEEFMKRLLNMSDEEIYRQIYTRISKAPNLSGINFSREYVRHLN
In words: SPR. Particulars: both partners purified.

B1: SA2102_10E8-like_2911_Fab (Fab, V domains shown)
VH: QVQLKQSGPGLVQPSQSLSITCTVSGFSLTSYGVHWVRQSPGKGLEWLGVIWSGGSTDYNAAFISRLSISKDNSKSQVFFKMNSLQADDTAIYYCARAPPYYDFWSGYSYYYYYMDVWGKGTTVTV
VL: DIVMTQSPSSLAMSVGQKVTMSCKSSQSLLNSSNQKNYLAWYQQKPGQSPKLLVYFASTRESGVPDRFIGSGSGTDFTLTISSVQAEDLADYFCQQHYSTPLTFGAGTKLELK
notes: also called SA2911; source: FreeStyle 293F cells, transfected, purified
As to B1, the values for the Kd in the experiment with 10E8-GT10.2 and with 10E8-GT12 were 787 nM and 534 nM, respectively.

B2: NHP-10E8_MPER-GT10v55_W3-02 (Fab, V domains shown)
VH: EVQLVESGGGLVQPGGSLKLSCAASGFTFSDHYMDWVRQAPGKGLEWVSSVSSGSGSATLYPDSVKGRFTISRDNAKNTVYLQMNSLRAEDTAVYYCARRGLYYDFWSGYSDFYYGLDSWGQGVVVTVSS
VL: DIVMTQTPLSLPITPGEPASISCRSSQSLLQSNGNTYLHWYLQKPGQSPQLLIYGGSNRASGVPDRFSGSGSGTDFTLKISKVEAEDVGVYYCVQAIAFPFTFGPGTKLDIK
notes: source: FreeStyle 293F cells, transfected, purified
For the molecule B2, the Kd (usually the concentration at which binding is half-saturated) with 10E8-GT10.2 was 7.5 nM; with 10E8-GT12, 3400 nM.

B3: SA684_Exp1_Scaf_MPER-GT10v55_W6-03 (Fab, V domains shown)
VH: DVQLQESGPGLVKPSQSLSLTCSVTGYSITSGYYWNWIRQFPGNKLEWMGYISYDGSNNYNPSLKNRISITRDTSQNQFFLKLNSVTTEDTASYYCAREGPYYDFWSGYYAYYMDVWGKGTTVTVSS
VL: DIVMSQSPSSLAVSVGEKVTMSCKSSQSLLYSSNQKNYLAWYQQKPGQSPKLLIYWASTRKSGVPDRFTGSGSGTDFTLTISSVKAEDLAVYYCQQYFGYPLTFGAGTKLELK
notes: as for B2
Turning to B3, the Kd in the experiment with 10E8-GT10.2 was found to be 9 nM; with 10E8-GT12 it was 8.5 nM.

B4: NHP-10E8_MPER-GT10v55_W3-05 (Fab, V domains shown)
VH: EVQLVESGGGLVQPGGSLRLSCAASGFTFSNYWMSWVRQAPGKGLEWVGFIKNKADGGTAAYAESVKGRFTISRDDSKNTLYLQMNSLKTEDTAVYYCARDLGRYNFWSGFYSQNRFDVWGPGVLVTVSS
VL: SYEVTQPPSVSVSPGQMARITCGGDNLGSKYVHWYQQKPAQAPVLVIYDDSERPSGIPERFSGSKSGNTATLTISGVEAGDEADYYCQVWDSSSDHPLFGGGTRLTVL
notes: as for B2
Take B4: the Kd came out at 19 nM in the experiment with 10E8-GT10.2 and 490 nM in the experiment with 10E8-GT12.

B5: SA684_Exp1_Scaf_MPER-GT12v56_W6-10 (Fab, V domains shown)
VH: QVTLKESGPGILQPSQTLSLTCSFSGFSLSTFGMGVGWIRQPSGKGLEWLAHIWWDDDKFYNPALKSRLTISKDTSKNQVFLKIANVDTADTATYYCARIGEDYFLDVWGKGTTVTVSS
VL: DIQMTQSPASLSASVGETVTITCRASGNIHNYLAWYQQKQGKSPQLLVYNAKTLADGVPSRFSGSGSGTQYSLKINSLQPEDFGSYYCQHFWSAPYTFGGGTNLEIK
notes: also called off-target mouse Fab W6-10; source: FreeStyle 293F cells, transfected, purified
On to B5, for which the Kd is 3 nM with 10E8-GT10.2 and 1.8 nM with 10E8-GT12.
